Target: T1, full-length human KDR on CHO-KDR cells (human, UniProt P35968 20-1356)
T1 construct: whole, on cells; stably transfected CHO-K1 cells
Experiment: flow cytometry on CHO-KDR cells, His6-tagged protein, anti-His6 MAb and Alexa Fluor 488 anti-mouse antibody
Description: Binding of fibronectin-based scaffold protein to cell-surface KDR and Flk-1 was analyzed simultaneously on VEGF-R2-expressing and control cells by flow cytometry. CHO-pcDNA3 cells (control) were released from their dishes with trypsin-EDTA, washed in Dulbecco's PBS without calcium and magnesium (D-PBS⁻; Invitrogen), and stained for 30 minutes at 37° C. with 1.5 μM CMTMR (5-(and-6)-(((4-chloromethyl)benzoyl)amino)-tetramethylrhodamine) (Molecular Probes). The cells were washed in D-PBS⁻ and incubated for a further 30 minutes at 37° C., and then resuspended in blocking buffer (D-PBS710% fetal bovine serum) on ice. CHO-KDR or CHO-Flk cells were treated identically except that CMTMR was omitted. […] For cells treated with an anti-KDR mouse monoclonal antibody (Accurate Chemical, Westbury, N.Y.) or an anti-flk-1 goat polyclonal antibody (R&D Systems), the anti-His₆ step was omitted, and antibody binding was detected with the species-appropriate Alexa Fluor 488 conjugated secondary antibody (Molecular Probes). Following staining, cells were resuspended in 200 μl/well D-PBS⁻/1% FBS/1 μg/ml 7-aminoactinomycin D (7-AAD; Molecular Probes) and analyzed by flow cytometry on a FACSCalibur (Becton Dickinson, San Jose, Calif.) equipped with a […]. […]

T1 sequence (P35968 20-1356): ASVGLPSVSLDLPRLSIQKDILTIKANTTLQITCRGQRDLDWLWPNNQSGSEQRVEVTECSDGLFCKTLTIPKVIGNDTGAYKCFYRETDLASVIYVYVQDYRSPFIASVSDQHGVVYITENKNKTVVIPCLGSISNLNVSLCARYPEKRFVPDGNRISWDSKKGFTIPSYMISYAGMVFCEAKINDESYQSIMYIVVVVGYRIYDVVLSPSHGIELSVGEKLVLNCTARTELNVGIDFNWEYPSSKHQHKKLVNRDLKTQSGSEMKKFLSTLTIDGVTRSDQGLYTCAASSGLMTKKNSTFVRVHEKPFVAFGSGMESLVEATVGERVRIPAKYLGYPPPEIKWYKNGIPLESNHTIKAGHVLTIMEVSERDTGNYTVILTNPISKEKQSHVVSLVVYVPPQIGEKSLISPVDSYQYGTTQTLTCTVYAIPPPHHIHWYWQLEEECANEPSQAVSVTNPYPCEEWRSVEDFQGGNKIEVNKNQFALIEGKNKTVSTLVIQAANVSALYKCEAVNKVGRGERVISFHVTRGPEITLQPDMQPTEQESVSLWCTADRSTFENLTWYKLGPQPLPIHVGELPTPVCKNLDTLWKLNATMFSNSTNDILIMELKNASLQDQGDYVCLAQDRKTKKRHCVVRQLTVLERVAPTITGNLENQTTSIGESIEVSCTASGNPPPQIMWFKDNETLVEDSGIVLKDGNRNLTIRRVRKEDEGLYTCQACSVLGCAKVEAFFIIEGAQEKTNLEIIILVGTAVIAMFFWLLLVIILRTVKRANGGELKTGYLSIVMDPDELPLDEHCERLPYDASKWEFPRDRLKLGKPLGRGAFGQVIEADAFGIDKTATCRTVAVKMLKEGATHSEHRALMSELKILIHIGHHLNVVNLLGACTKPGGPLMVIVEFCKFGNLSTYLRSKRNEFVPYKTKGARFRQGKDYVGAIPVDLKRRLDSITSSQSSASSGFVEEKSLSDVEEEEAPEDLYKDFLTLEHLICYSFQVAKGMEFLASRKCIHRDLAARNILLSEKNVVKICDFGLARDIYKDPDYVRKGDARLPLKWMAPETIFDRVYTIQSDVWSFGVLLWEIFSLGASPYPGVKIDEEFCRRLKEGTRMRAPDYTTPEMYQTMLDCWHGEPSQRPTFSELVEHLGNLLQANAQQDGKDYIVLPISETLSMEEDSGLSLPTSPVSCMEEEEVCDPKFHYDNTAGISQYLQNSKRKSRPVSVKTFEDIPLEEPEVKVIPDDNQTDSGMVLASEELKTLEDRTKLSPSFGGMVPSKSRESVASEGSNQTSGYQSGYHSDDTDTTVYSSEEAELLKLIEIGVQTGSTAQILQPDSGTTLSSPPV

B1: WT fibronectin-based scaffold protein (wild-type 10Fn3), E. coli, His6 (other)
chain: VSDVPRDLEVVAATPTSLLISWDAPAVTVRYYRITYGETGGNSPVQEFTVPGSKSTATISGLKPGVDYTITGYAVTGRGDSPASSKPISINYRTEIDKPSQHHHHHH
notes: E. coli-expressed soluble form; N-terminal Met not described
B1: no binding (tested: log[M] about -6.9 (about 1e-7 M)).

— patent US20100310549A1 (Bristol-Myers Squibb, published 2010)
